Test results: paper PMC11580931 (bioRxiv, 2024)

T1: 3-pHis peptide (biotin-aminocaproic acid-AGAG-3-pHis-AGAG)
T1 sequence (peptide, biotin-aminocaproic acid on the N-terminus; 3-phosphohistidine at position 5): AGAGHAGAG


Key:
[1] = biological target: 3-pTza peptide (Biotin-AminocaproicAcid-AGAG-3-pTza-AGAG); assay: BLI
[2] = biological target: 3-pHis form of ACLY (120 kDa) (Homo sapiens (HEK293T, endogenous), UniProt P53396, 3-phosphohistidine (residue not stated)); assay: immunoblot
[3] = biological target: T1, 3-pHis peptide (biotin-aminocaproic acid-AGAG-3-pHis-AGAG); assay: BLI

3-pHis form of ACLY (120 kDa), sequence (P53396 whole entry): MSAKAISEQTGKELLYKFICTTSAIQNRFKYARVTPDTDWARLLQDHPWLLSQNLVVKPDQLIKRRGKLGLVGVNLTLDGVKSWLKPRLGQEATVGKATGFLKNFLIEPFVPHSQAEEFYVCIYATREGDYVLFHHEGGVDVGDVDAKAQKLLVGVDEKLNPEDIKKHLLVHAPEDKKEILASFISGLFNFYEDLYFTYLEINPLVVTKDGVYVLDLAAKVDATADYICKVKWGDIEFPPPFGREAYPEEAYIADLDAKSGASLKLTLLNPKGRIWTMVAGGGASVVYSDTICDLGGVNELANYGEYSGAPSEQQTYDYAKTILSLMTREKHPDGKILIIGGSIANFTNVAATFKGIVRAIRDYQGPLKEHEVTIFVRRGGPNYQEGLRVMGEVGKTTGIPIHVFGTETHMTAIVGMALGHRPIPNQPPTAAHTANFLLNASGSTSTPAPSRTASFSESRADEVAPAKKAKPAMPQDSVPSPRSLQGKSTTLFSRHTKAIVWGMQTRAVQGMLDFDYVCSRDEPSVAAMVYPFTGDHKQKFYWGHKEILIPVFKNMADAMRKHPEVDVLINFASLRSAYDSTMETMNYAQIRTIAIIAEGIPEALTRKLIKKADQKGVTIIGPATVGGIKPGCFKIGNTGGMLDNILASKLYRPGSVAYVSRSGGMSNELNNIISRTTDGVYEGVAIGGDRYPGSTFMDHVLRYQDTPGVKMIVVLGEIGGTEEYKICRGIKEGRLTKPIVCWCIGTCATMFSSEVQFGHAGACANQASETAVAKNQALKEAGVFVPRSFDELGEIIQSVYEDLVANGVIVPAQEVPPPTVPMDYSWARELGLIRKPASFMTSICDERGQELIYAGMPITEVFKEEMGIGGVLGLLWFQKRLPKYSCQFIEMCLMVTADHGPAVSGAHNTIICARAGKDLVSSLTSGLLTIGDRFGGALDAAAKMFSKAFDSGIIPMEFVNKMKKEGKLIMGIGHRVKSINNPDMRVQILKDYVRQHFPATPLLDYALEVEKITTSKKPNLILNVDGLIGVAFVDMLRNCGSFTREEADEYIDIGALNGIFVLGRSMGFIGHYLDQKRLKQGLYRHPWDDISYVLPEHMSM

| Kd [1] [nM] | koff [1] [s⁻¹] | kon [1] [M⁻¹ s⁻¹] | binding result [2] | Kd [3] [nM] | kon [3] [M⁻¹ s⁻¹] | koff [3] [s⁻¹] | Binder |
| --- | --- | --- | --- | --- | --- | --- | --- |
| 1.2 |  |  |  |  |  |  | hSC44 IgG (humanized version of rSC44) (antibody, V domains shown) VH: EVQLVESGGGLVQPGGSLRLSCTASGFSIDSYGFSWVRQAPGKGLEHIGYLTAGGRAFYASWAKSRSTITRNTNENTVTLKMNSLRAEDTAVYYCAKLGSGNPVAIWGQGTLVTVSS VL: DIQMTQSPSSLSASVGDRVTITCRASQSVWRNKNVAWYQQKPGKAPKRLIYAIASLYSGVPSRFSGSGSGTDFTLTISSLQPEDFATYYCVGHYGSENDAYYAFGQGTKVEIK |
| 0.185 | 6.66e-05 | 359000 |  |  |  |  | hSC44.8 IgG (antibody, V domains shown) VH: EVQLVESGGGLVQPGGSLRLSCTASGFSIDSYGFSWVRQAPGKGLEHIGYLTAGGRAFYASWAKSRSTITRNTNENTVTLKMNSLRAEDTAVYYCAKIGTGSRVAIWG VL: DIQMTQSPSSLSASVGDRVTITCRASQSVWRNKNVAWYQQKPGKAPKRLIYAIASLYSGVPSRFSGSGSGTDFTLTISSLQPEDFATYYCVGHYGSENDAYYAFGQGTKVEIK |
| 0.405 | 7.37e-05 | 182000 |  |  |  |  | hSC44.13 IgG (antibody, V domains shown) VH: EVQLVESGGGLVQPGGSLRLSCTASGFSIDSYGFSWVRQAPGKGLEHIGYLTAGGRAFYASWAKSRSTITRNTNENTVTLKMNSLRAEDTAVYYCAKLGTGSPVAIWG VL: DIQMTQSPSSLSASVGDRVTITCRASQSVWRNKNVAWYQQKPGKAPKRLIYAIASLYSGVPSRFSGSGSGTDFTLTISSLQPEDFATYYCVGHYGSENDAYYAFGQGTKVEIK |
| < 0.001 |  | 257000 | binds | 21 | 75500 |  | hSC44.20 IgG (antibody, V domains shown) VH: EVQLVESGGGLVQPGGSLRLSCTASGFSIDSYGFSWVRQAPGKGLEHIGYLTAGGRAFYASWAKSRSTITRNTNENTVTLKMNSLRAEDTAVYYCAKLGTGSRFAIWGQGTLVTVSS VL: DIQMTQSPSSLSASVGDRVTITCRASQSVWRNKNVAWYQQKPGKAPKRLIYAIASLYSGVPSRFSGSGSGTDFTLTISSLQPEDFATYYCVGHYGSENDAYYAFGQGTKVEIK |
| 1.54 | 5.73e-05 | 37300 | binds | 1.68 | 13900 | 1.64e-05 | hSC44.20.N32F^L IgG (antibody, V domains shown) VH: EVQLVESGGGLVQPGGSLRLSCTASGFSIDSYGFSWVRQAPGKGLEHIGYLTAGGRAFYASWAKSRSTITRNTNENTVTLKMNSLRAEDTAVYYCAKLGTGSRFAIWGQGTLVTVSS VL: DIQMTQSPSSLSASVGDRVTITCRASQSVWRNKFVAWYQQKPGKAPKRLIYAIASLYSGVPSRFSGSGSGTDFTLTISSLQPEDFATYYCVGHYGSENDAYYAFGQGTKVEIK |
| 0.588 | 8.32e-05 | 141000 |  |  |  |  | hSC44.1 IgG (antibody, V domains shown) VH: EVQLVESGGGLVQPGGSLRLSCTASGFSIDSYGFSWVRQAPGKGLEHIGYLTAGGRAFYASWAKSRSTITRNTNENTVTLKMNSLRAEDTAVYYCAKLGTGSPIAIWGQGTLVTVSS VL: DIQMTQSPSSLSASVGDRVTITCRASQSVWRNKNVAWYQQKPGKAPKRLIYAIASLYSGVPSRFSGSGSGTDFTLTISSLQPEDFATYYCVGHYGSENDAYYAFGQGTKVEIK |
| < 0.001 |  | 35100 |  | 9.5 | 8880 | 2.61e-05 | hSC44.20.N32Y^L IgG (antibody, V domains shown) VH: EVQLVESGGGLVQPGGSLRLSCTASGFSIDSYGFSWVRQAPGKGLEHIGYLTAGGRAFYASWAKSRSTITRNTNENTVTLKMNSLRAEDTAVYYCAKLGTGSRFAIWGQGTLVTVSS VL: DIQMTQSPSSLSASVGDRVTITCRASQSVWRNKYVAWYQQKPGKAPKRLIYAIASLYSGVPSRFSGSGSGTDFTLTISSLQPEDFATYYCVGHYGSENDAYYAFGQGTKVEIK |
| 0.495 | 4.49e-05 | 90600 |  |  |  |  | hSC44.22 IgG (antibody, V domains shown) VH: EVQLVESGGGLVQPGGSLRLSCTASGFSIDSYGFSWVRQAPGKGLEHIGYLTAGGRAFYASWAKSRSTITRNTNENTVTLKMNSLRAEDTAVYYCAKLGTGTPVAIWG VL: DIQMTQSPSSLSASVGDRVTITCRASQSVWRNKNVAWYQQKPGKAPKRLIYAIASLYSGVPSRFSGSGSGTDFTLTISSLQPEDFATYYCVGHYGSENDAYYAFGQGTKVEIK |
| 1.21 |  | 24900 |  |  |  |  | hSC44.28 IgG (antibody, V domains shown) VH: EVQLVESGGGLVQPGGSLRLSCTASGFSIDSYGFSWVRQAPGKGLEHIGYLTAGGRAFYASWAKSRSTITRNTNENTVTLKMNSLRAEDTAVYYCAKLGTGSPLAIWG VL: DIQMTQSPSSLSASVGDRVTITCRASQSVWRNKFVAWYQQKPGKAPKRLIYAIASLYSGVPSRFSGSGSGTDFTLTISSLQPEDFATYYCVGHYGSENDAYYAFGQGTKVEIK |
| 2.71 | 3.98e-05 | 14700 |  |  |  |  | hSC44.31 IgG (antibody, V domains shown) VH: EVQLVESGGGLVQPGGSLRLSCTASGFSIDSYGFSWVRQAPGKGLEHIGYLTAGGRAFYASWAKSRSTITRNTNENTVTLKMNSLRAEDTAVYYCAKLGTGTPFAIWGQGTLVTVSS VL: DIQMTQSPSSLSASVGDRVTITCRASQSVWRNKYVAWYQQKPGKAPKRLIYAIASLYSGVPSRFSGSGSGTDFTLTISSLQPEDFATYYCVGHYGSENDAYYAFGQGTKVEIK |
| 0.352 | 1.43e-05 | 40700 |  |  |  |  | hSC44.3 IgG (antibody, V domains shown) VH: EVQLVESGGGLVQPGGSLRLSCTASGFSIDSYGFSWVRQAPGKGLEHIGYLTAGGRAFYASWAKSRSTITRNTNENTVTLKMNSLRAEDTAVYYCAKIGSGSPVAIWG VL: DIQMTQSPSSLSASVGDRVTITCRASQSVWRNKNVAWYQQKPGKAPKRLIYAIASLYSGVPSRFSGSGSGTDFTLTISSLQPEDFATYYCVGHYGSENDAYYAFGQGTKVEIK |
|  |  |  | binds |  |  |  | rSC44 IgG (rabbit SC44-8 anti-3-pTza/3-pHis mAb) (antibody, V domains shown) VH: QSVKESGRGLVQPGGSLTLTCTASGFSIDSYGFSWVRQAPGKGLEHIGYLTAGGRAFYASWAKSRSTITRNTNENTVTLKMTSLTAADTATYFCAKLGSGNPVAIWGPGTLVTVSS VL: QVLTQTPSFTSAAVGGTVTINCQSSQSVWRNKNLAWYQQKPGQPPKRLIYAIATLDSGVPSRFSGSGSGTQFTLTISDVQCDDAATYYCVGHYGSENDAYYAFGGGTEVVVK |
